Measured values published in patent publication US20160177307.

Test system: T1, VEGF-121 (Homo sapiens), P15692-9
T1 sequence: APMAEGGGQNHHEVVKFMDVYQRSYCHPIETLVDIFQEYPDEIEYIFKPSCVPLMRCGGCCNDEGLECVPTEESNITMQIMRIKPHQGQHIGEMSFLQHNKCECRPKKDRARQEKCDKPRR
Test: filter

## CCGTTCAAGTGCTTGTAGGATTTAAATGG [4867-31_155]
NapdU at P, 2'-OMe 5
  Kd: 3.3 nM

## CCCTCCATCAGCCGTTCAAGTGCTTGTAGGATTTAAATGGAATTGGAGG [4867-15_73]
P=Nap-dU, C3 spacer at 50
  Kd: 0.17 nM

## CCCTCCATCAGCCGTTCAAGTGCTTGTAGGATTTAAATGAATTGGAGGA [4867-15_63]
P=Nap-dU, C3 spacer at 40
  Kd: 15 nM

## AGCCGTTCAAGTGCTTGTAGGATTTAAATGGA [4867-31_78]
P=Nap-dU, 2'-OMe C14
  Kd: 0.24 nM

## CCGTTCAAGTGCTTGTAGGATTTAAATGG [4867-31_424]
As 4867-31_192, PS 3' of 21, 3' inverted dT
  Kd: 0.011 nM

## CCCTCCATCAGCCGTTCAATGCTTGTAGGATTTAAATGGAATTGGAGGA [4867-15_43]
P=Nap-dU, C3 spacer at 20
  Kd: 9.2 nM

## CCCTCCATCAGCCGTTCAAGTGCTTGTAGATTTAAATGGAATTGGAGGA [4867-15_52]
P=Nap-dU, C3 spacer at 29
  Kd: 0.2 nM

## AGCCGTTCAAGTGCTTGTAGGATTTAAATGGA [4867-31_91]
P=Nap-dU, 2'-OMe A27
  Kd: 0.35 nM

## CCGTTTAAGTGCTTGTAGGATTTAAATGGA [4867-31_147]
P=Nap-dU
  Kd: 3.28 nM

## AGCCGTTCAAGTGCTTGTAGGATTTAAATGGA [4867-31_76]
2'-OMe-U at 12 in place of NapdU, other P are NapdU, 2'-OMe-U for NapdU
  Kd: 22.9 nM

## CCCTCCATCAGCCGTTCAAGTGCTTGTAGGATTTAAATGGAATTGGAGGA [4867-31_2 (4867-15_2, 50-mer)]
All P are NapdU, rest DNA, 50-mer parent
  Kd: 0.15 nM

## CCGTTCAAGTGCTTTAGGATTTAAATGG [4867-31_188]
NapdU at P, C3 spacer 15, 2'-OMe 9,17,18,28,29 as printed
  Kd: 0.038 nM

## CCCTCCATCAGCCGTTCAAGTGCTTGTAGGATTTAAATGGAATGGAGGA [4867-15_67]
P=Nap-dU, C3 spacer at 44
  Kd: 0.15 nM

## CCCTCCATCAGCCGTTCAAGTGCTTGTAGGATTTAAATGGAATTGAGGA [4867-15_68]
P=Nap-dU, C3 spacer at 45
  Kd: 0.32 nM

## CCGTTCAAGTGCTTGTAGGATTTAAATGG [4867-31_417]
As 4867-31_192, PS 3' of 11, 3' inverted dT
  Kd: 0.0094 nM

## CGACAGCATGTATGCACATCTCCGTTCAAGTGCTTGTAGGATTTAAATGG [5169-4_101]
PDGF-4Heg-VEGF, NapdU, 2'-OMe
  Kd: 0.13 nM

## CCCTCCATCAGCCGTTCAAGTGCTTGTAGGATTTAAATGGATTGGAGGA [4867-15_65]
P=Nap-dU, C3 spacer at 42
  Kd: 0.13 nM

## AGCCGTTCAAGTGCTTGTAGGATTTAAATGGA [4867-31_66]
P=Nap-dU, 2'-OMe G2
  Kd: 0.17 nM

## CCGTTCAAGTGCTTGTAGGATTTAAATGG [4867-31_414]
As 4867-31_192, PS 3' of 7, 3' inverted dT
  Kd: 0.015 nM

## CCGTTCAAGTGCTTGTAGGATTTAAATGG [4867-31_156]
NapdU at P, 2'-OMe 10
  Kd: 0.68 nM

## CCGTTCAAGTGCTTGTAGGATTTAAATGG [4867-31_444]
As 4867-31_192 plus PS 3' of G28, 3'-idT, PS walk
  Kd: 0.0075 nM

## CCGTTCAAGTGCTTGTAGGATTTAAATGG [4867-31_478]
As 4867-31_192, PS 25,26
  Kd: 0.019 nM

## CCCTCCATCAGCCGTTCAGTGCTTGTAGGATTTAAATGGAATTGGAGGA [4867-15_41]
P=Nap-dU, C3 spacer at 18
  Kd: 13 nM

## CCTCCATCAGCCGTTCAAGTGCTTGTAGGATTTAAATGGAATTGGAGGA [4867-15_25]
P=Nap-dU, C3 spacer at 2
  Kd: 0.13 nM

## CCGTTCAAGTGCTTGTAGGATTTAAATGG [4867-31_429]
As 4867-31_192, PS 3' of 27, 3' inverted dT
  Kd: 0.012 nM

## CCCTCCTCAGCCGTTCAAGTGCTTGTAGGATTTAAATGGAATTGGAGGA [4867-15_30]
P=Nap-dU, C3 spacer at 7
  Kd: 0.11 nM

## CCGTTCAAGTGCTTTAGGATTTAAATGG [4867-31_187]
2'-OMe G9,A17, C3 spacer at 15, all P are NapdU, target taken as VEGF-121
  Kd: 0.032 nM

## CCGTTCAAGTGCTTGTAGGATTTAAATGGCGACAGCATGTATGCACATCT [5169-4_94]
VEGF-5Heg-PDGF, NapdU, 2'-OMe
  Kd: 0.066 nM

## CCGTTCAAGTGCTTGTAGGATTTAAATGGCGACAGCATGTATGCACATCT [5169-4_93 (VEGF-6Heg-PDGF)]
P NapdU, superscript 1 2'-OMe, six Heg linkers
  Kd: 0.052 nM

## CCCTCCATCAGCCGTTCAAGTGCTTGTAGGATTTAAATGGAATTGGAGA [4867-15_72]
P=Nap-dU, C3 spacer at 49
  Kd: 0.19 nM

## CCCTCCATCAGCCGTTCAAGTGCTTGTAGGATTTAAATGGAATTGAGGA [4867-15_69]
P=Nap-dU, C3 spacer at 46
  Kd: 0.77 nM

## CCGTTCAAGTGCTTGTAGGATTTAAATGG [4867-31_475]
As 4867-31_192, 2'-OMe 1, PS 25
  Kd: 0.026 nM

## CCGTTCAAGTGCTTGTAGGATTTAAATGG [4867-31_158]
NapdU at P, 2'-OMe 14
  Kd: 1.7 nM

## CCGTTCAAGTGCTTGTAGGATTTAAATGG [4867-31_440]
As 4867-31_192, PS 3' of 12, 3' inverted dT
  Kd: 0.0099 nM

## CCGTTCAAGTGCTTGTAGGATTTAAATGG [4867-31_410]
As 4867-31_192, PS 3' of 2, 3' inverted dT
  Kd: 0.016 nM

## CCCTCCATCAGCCGTTCAAGTGCTTTAGGATTTAAATGGAATTGGAGGA [4867-15-49]
C3 spacer at 26 as stated in text numbering is nearby G (single V in SEQ:614), all P are NapdU, C3 spacer at G26 tolerated
  Kd: 0.079 nM

## CCGTTCAAGTGCTTATAGGATTTAAATGGA [4867-31_148]
P=Nap-dU
  Kd: 0.53 nM

## CCGTTCAAGTGCTTGTAGGATTTAAATGG [4867-31_421]
As 4867-31_192, PS 3' of 16, 3' inverted dT
  Kd: 0.015 nM

## CCCTCCATCAGCCGTTCAAGTGCTTGAGGATTTAAATGGAATTGGAGGA [4867-15_50]
P=Nap-dU, C3 spacer at 27
  Kd: 3.5 nM

## AGCCGTTCAAGTGCTTGTAGGATTTAAATGGA [4867-31_86]
P=Nap-dU, 2'-OMe A22
  Kd: 6.21 nM

## AGCCGTTCAAGTGCTTGTAGGATTTAAATGGA [4867-31_77]
P=Nap-dU, 2'-OMe G13
  Kd: 6.64 nM

## CCGTTCAAGTGCTTGTAGGATTTAAATGG [4867-31_426]
As 4867-31_192, PS 3' of 24, 3' inverted dT
  Kd: 0.012 nM

## CCCTCCATCAGCCGTTCAAGTGCTTGTAGATTTAAATGGAATTGGAGGA [4867-15_53]
P=Nap-dU, C3 spacer at 30
  Kd: 23 nM

## CCCTCATCAGCCGTTCAAGTGCTTGTAGGATTTAAATGGAATTGGAGGA [4867-15_28]
P=Nap-dU, C3 spacer at 5
  Kd: 0.34 nM

## CCCTCCATCGCCGTTCAAGTGCTTGTAGGATTTAAATGGAATTGGAGGA [4867-15_33]
P=Nap-dU, C3 spacer at 10
  Kd: 0.12 nM

## CCGTTCAAGTGCTTGTAGGATTTAAATGG [4867-31_423]
As 4867-31_192, PS 3' of 20, 3' inverted dT
  Kd: 0.018 nM

## CCGTTCAAGTGCTTGTAGGATTTAAATGG [4867-31_480]
As 4867-31_192, 2'-OMe 1, PS 24,25
  Kd: 0.028 nM

## CCGTTCAAGTGCTTGTAGGATTTAAATGG [4867-31_411]
As 4867-31_192 plus PS 3' of G3, 3'-idT, 29259-fold loss from PS at G3
  Kd: 320 nM

## AGCCGTTCAAGTGCTTGTAGGATTTAAATGGA [4867-31_84]
P=Nap-dU, 2'-OMe G20
  Kd: 0.21 nM

## CCGTTCAAGTGCTTGTAGGATTTAAATGG [4867-31_412]
As 4867-31_192, PS 3' of 4, 3' inverted dT
  Kd: 0.022 nM

## CCGTTCAAGTGCTTGTAGGATTTAAATGG [4867-31_157]
NapdU at P, 2'-OMe 13
  Kd: 1.5 nM

## CCGTTCAAGTGCTTGTAGGATTTAAATGG [4867-31_443]
As 4867-31_192, PS 3' of 18, 3' inverted dT
  Kd: 0.0085 nM

## TTACGTTACCGCGTTTATAGCGCCGTTCAAGTGCTTGTAGGATTTAAATGG [4149-8_401]
PDGF_379-3Heg-VEGF_192, NapdU, BndU, MBndU, 2'-OMe, 5' amino linker
  Kd: 0.027 nM

## CCGTTCAAGTGCTTGTATGATTTAAATGGA [4867-31_153]
P=Nap-dU
  Kd: 0.21 nM

## CCCTCCATCAGCCTTCAAGTGCTTGTAGGATTTAAATGGAATTGGAGGA [4867-15_37]
P=Nap-dU, C3 spacer at 14
  Kd: 30 nM

## AGCCGTTCAAGTGCTTGTAGATTTAAATGGA [4867-31_99]
P=Nap-dU, C3 spacer at 20
  Kd: 0.22 nM

## CCGTTCAAGTGCTTGTAGGATTTAAATGG [4867-31_413]
As 4867-31_192, PS 3' of 5, 3' inverted dT
  Kd: 0.015 nM

## CCGTTCAAGTGCTTGTAGGATTTAAATGG [4867-31_159]
NapdU at P, 2'-OMe 16
  Kd: 0.56 nM

## CCGTTCAAGTGCTTGTAGGATTTAAATGG [4867-31_160]
NapdU at P, 2'-OMe 21
  Kd: 1.5 nM

## AGCCGTTCAAGTGCTTGTAGGATTTAAATGGA [4867-31_85]
P=Nap-dU, 2'-OMe G21
  Kd: 25.8 nM

## AGCCGTTCAAGTGCTTGTAGGATTTAAATGGA [4867-31_74]
P=Nap-dU, 2'-OMe A10
  Kd: 3.14 nM

## CCGTTCAAGTGCTTGTACGATTTAAATGGA [4867-31_152]
P=Nap-dU
  Kd: 0.32 nM

## CCGTTCAAGTGCTTTAGATTTAAATGG [4867-31_185]
NapdU at P, C3 spacer 15,18, 2'-OMe 6,9,12,17,28,29
  Kd: 0.26 nM

## CCGTTCAAGTGCTTGTAGGATTTAAATGG [4867-31_162]
2'-OMe-NapU at 23, other P are NapdU, target taken as VEGF-121
  Kd: 8.9 nM

## CCGTTCAAGTGCTTGTAGGATTTAAATGG [4867-31_420]
As 4867-31_192, PS 3' of 14, 3' inverted dT
  Kd: 0.018 nM

## CCCTCCATCAGCCGTTCAAGTCTTGTAGGATTTAAATGGAATTGGAGGA [4867-15_45]
P=Nap-dU, C3 spacer at 22
  Kd: 3.5 nM

## CCGTTCAAGTGCTTGTAGGATTTAAATGG [4867-31_428]
As 4867-31_192, PS 3' of 26, 3' inverted dT
  Kd: 0.0084 nM

## CCCTCCATCAGCCGTTCAAGTGCTTGTAGGATTTAAATGGAATTGGAGA [4867-15_71]
P=Nap-dU, C3 spacer at 48
  Kd: 0.24 nM

## CCCTCCATCAGCCGTTCAAGTGCTTGTGGATTTAAATGGAATTGGAGGA [4867-15_51]
P=Nap-dU, C3 spacer at 28
  Kd: 1.6 nM

## AGCCGTTCAAGTGCTTGTAGGATTTAAATGGA [4867-31_94]
P=Nap-dU, 2'-OMe G30
  Kd: 0.21 nM

## CCCTCCATCAGCCGTTCAAGTGCTTGTAGGATTTAAATGGAATGGAGGA [4867-15_66]
P=Nap-dU, C3 spacer at 43
  Kd: 0.11 nM

## CCGTTCAAGTGCTTGTAGGATTTAAATGG [4867-31_427]
As 4867-31_192, PS 3' of 25, 3' inverted dT
  Kd: 0.0081 nM

## CCGTTGAAGTGCTTGTAGGATTTAAATGGA [4867-31_146]
P=Nap-dU
  Kd: 5.98 nM
